Measured values: patent US20050154189A1 (MAXYGEN, published 2005)

Target: T1, Soluble CD28-Ig (human, UniProt P10747 19-152, biotin-conjugated (NHS-biotin) in the labelled-ligand FACS assays)
T1 construct: extracellular domain; Bought from R&D Systems; also called sCD28-Ig; CD28-Ig Fc; not shown: Fc portion of human IgG1
Experiment: two-colour FACS profile on transfected cells; score of preference for CD28-Ig over CTLA-4-Ig vs WT hB7-1

Binder	Binding Score
Round 2 CD28A8-4 (ligand) ITPKSVTKRVKETVMLSCDYNTSTEELTSLRIYWQKDSKMVLAILPGKVQVWPEYKNRTITDMNDNPRIVILALRLSDSGTYTCVIQKPVLKGAYKLEHLTSVRLMIRADFPVPTINDLGNPSPNIRRLICSTSGGFPRPHLYWLENGEELNATNTTVSQDPGTELYMISSELDFNVTNNHSIVCLIKYGELSVSQIFPWSKPKQEPPIDQLPFWVIIPVSGALVLTAVVLYCLACRHVARWKRTRRNEETVGTERLSPIYLGSAQSSG	1
Round 2 CD28BP-5 (ligand) ITPKSVTKRVKETVMLSCDYSTSTEELTSLRIYWQKDSKMVLAILPGKVQVWPEYKNRTITDMNDNPRIVILALRLSDKGTYTCVVQKPVLKGAYKLEHLTSVRLMIRADFPVPTINDLGNPSPNIRRLICSTSGGFPRPHLYWLENGEELNATNTTVSQDPGTELYMISSELDFNVTNNHSIVCLIKYGELSVSQIFPWSKPKQEPPIDQLPFWVIIPVSGALVLTAVVLYCLACRHVARWKRTRRNEETVGTERLSPIYLGSAQSSG	2
Round 2 CD28B2-8 (ligand) ITPKSVTKRVKETVMLSCDYNTSTEELTSLRIYWQKDSKMVLAILPGKVQVWPEYKNRTITDMNDNPRIVILALRLSDKGTYTCVIQKPVLKGAYKLEHLASVRLMIRADFPVPTINDLGNPSPNIRRLICSTSGGFPRPHLYWLENGEELNATNTTVSQDPGTELYMISSELDFNVTNNHSIVCLIKYGELSVSQIFPWSKPKQEPPIDQLPFWVIIPVSGALVLTAVVLYCLACRHVARWKRTRRNEETVGTERLSPIYLGSAQSSG	1
Round 2 CD28BP-16 (ligand) ITPKSVTKRVKETVMLSCDYNTSTEELTSLRIYWQKDSKMVLAILPGKVQVWPEYKNRTITDMNDNPRIVILALRLSDSGTYTCVIQKPVLKGAYKLEHLTSVRLMIRADFPVPTINDLGNPSPNIRRLICSTSGGFPRPHLYWLENGEELNATNTTVSQDPGTELYMISSELDFNVTNNHSIVCLIKYGELSVSQIFPWSKPKQEPPIDQLPFWVIIPVSGALVLAAVVLYCLACRHVARWKRTRRNEETVGTERLSPIYLGSAQSSG	2
Round 2 CD28C6-1 (ligand) ITPKSVTKRVKETVMLSCDYSTSTEELTSLRIYWQKDSKMVLAILPGKVQVWPEYKNRTITDMNDNPRIVILALRLSDSGTYTCVIQKPVLKGAYKLEHLASVRLMIRADFPVPTINDLGNPSPNIRRLICSTSGGFPRPHLYWLENGEELNATNTTVSQDPGTELYMISSELDFNVTNNHSIVCLIKYGELSVSQIFPWSKPKQEPPIDQLPFWVIIPVSGALVLTAVVLYCLACRHGARWKRTRRNEETVGTERLSPIYLGSAQSSG	1
Round 2 CD28C8-6 (ligand) ITPKSVTKRVKETVMLSCDYNTSTEELTSLRIYWQKDSKMVLAILPGKVQVWPEYKNRTITDMNDNPRIVILALRLSDSGTYTCVIQKPVLKGAYKLEHLASVRLMIRADFPVPTINDLGNPSPNIRRLICSTSGGFPRPHLYWLENGEELNATNTTVSQDPGTELYMISSELGFNVTNNHSIVCLIKYGELSVSQIFPWSKPKQEPPIDQLPFWVIIPVSGALVLTAVVLYCLACRHVARWKRTRRNEETVGTERLSPIYLGSAQSSG	2
Round 2 CD28C11-5 (ligand) ITPKSVTKRVKETVMLSCDYNTSTEELTSLRIYWQKDSKMVLAILPGKVQVWPEYKNRTITDMNDNPRIVILALRLSDSGTYTCVIQKPVLKGAYKLEHLTSVRLMIRADFPVPTINDLGNPSPNIRRLICSTSGGFPRPHLYWLENGEELNATNTTVSQDPGTELYMISSELDFNVTNNHSIACLIKYGELSVSQIFPWSKPKQEPPIDQLPFWVIIPVSGALVLTAVVLYCLACRHVARWKRTRRNEETVGTERLSPIYLGSAQSSG	2
Round 2 CD28D2-9 (ligand) ITPKSVTKRVKETVMLSCDYNTSTEELTSLRIYWQKDSKMVLAILPGKVQVWPEYKNRTITDMNDNPRIVILALRLSDSGTYTCVIQKPVLKGAYKLEHLTSVRLMIRADFPVPTINDLGNPSPNIRRLICSTSGGFPRPHLYWLENGEELNATNTTLSQDPETELYMISSELDFNVTNNHSIVCLIKYGELSVSQIFPWSKPKQEPPIDQLPFWVIIPVSGALVLTAVVLYCLACRHVARWKRTRRNEETVGTERLSPIYLGSAQSSG	1
Round 2 CD28BP-4 (ligand) ITPKSVTKRVKETVMLSCDYNTSTEELTSLRIYWQKDSKMVLAILPGKVQVWPEYKNRTITDMNDNPRIVILALRLSDSGTYTCVIQKPVLKGAYKLEHLASVRLMIRADFPVPTINDLGNPSPNIRRLICSTSGGFPRPHLCWLENGEELNATNTTVSQDPGTELYMISSELDFNVTNNHSIVCLIKYGELSVSQIFPWSKPKQEPPIDQLPFWVIIPVSGALVLTAVVLYCLACRHVARWKRTRRNEETVGTERLSPIYLGSAQSSG	2
Round 2 CD28BP-2 (ligand) ITPKSVTKRVKETVMLSCDYSTSTEELTSLRIYWQKDSKMVLAILPGKVQVWPEYKNRTITDMNDNPRIVILALRLSDSGTYTCVIQKPVLKGAYKLEHLASVRLMIRADFPVPTINDLGNPSPNIRRLICSTSGGFPRPHLYWLENGEELNATNTTLSQDPETKLYMISSELDFNVTNNHSIVCLIKYGELSVSQIFPWSKPKQEPPIDQLPFWVIIPVSGALVLTAVVLYRPACRHVARWKRTRRNEETVGTERLSPIYLGSAQSSG	2
Round 2 CD28BP-13 (ligand) ITPKSVTKRVKETVMLSCDYSTSTEELTSLRIYWQKDSKMVLAILPGKVQVWPEYKNRTITDMNDNPRIVILALRLSDSGTYTCVIQKPVLKGAYKLEHLASVRLMIRADFPVPTINDLGNPSPNIRRLICSTSGGFPEPRLAWMEDGEELNAVNTTVDQDLDTELYSVSSELDFNVTNNHSIVCLIKYGELSVSQIFPWSKPKQEPPIDQLPFWVIIPVSGALVLTAVVLYCLACRHVARWKRTRRNEETVGTERLSPIYLGSAQSSG	2

Now from value to binder:

Binding Score	Binder
1	Round 2 CD28E2-4 (ligand) ITPKSVTKRVKETVMLSCDYSTSTEELTSLRIYWQKDSKMVLAILPGKVQVWPEYKNRTITDMNDNPRIVILALRLSDKGTYTCVIQKPVLKGAYKLEHLASVRLMIRADFPVPTINDLGNPSPNIRRLICSTSGGFPRPHLYWLENGEELNATNTTVSQDPGTELYMISSELDFNVTNNHSIVCLIKYGELSVSQIFPWSKPKQEPPIDQLPFWVIIPVSGALVLTAVVLYCLACRHVARWKRTRRNEETVGTERLSPIYLGSAQSSG
1	Round 2 CD28E10-6 (ligand) ITPKSVTKRVKETVMLSCDYNTSTEELTSLRIYWQKDSKMVLAILPGKVQVWPEYKNRTITDMNDNPRIVILALRLSDSGTYTCVIQKPVLKGAYKLEHLASVRLMIRADFPVPTINDLGNPSPNIRRLICSTSGGFPRPHLYWLENGEELNATNTTLSQDPETELYMISSELDFNVTNNHSIVCLIKYGELSVSQIFPWSKPKQEPPIDQLPFWVIIPVSGALVLTAVVLYCLACRHVARWKRTRRNEETVGTERLSPIYLGSAQSSG
0	Round 2 CD28E9-6 (ligand) ITPKSVTKRVKETVMLSCDYNTSTEELTSLRIYWQKDSKMVLAILPGKVQVWPEYKNRTITDMNDNPRIVILALRLSDKGTYTCVIQKPDLKGAYKLEHLASVRLMIRADFPVPTINDLGNPSPNIRRLICSTSGGFPRPHLYWLENGEELNATNTTVSQDPGTELYMISSELDFNVTNNHSIVCLIKYGELSVSQIFPWSKPKQEPPIDQLPFWVIIPVSGALVLTAVVLYCLACRHVARWKRTRRNEETVGTERLSPIYLGSAQSSG
0	Round 2 CD28E5-2 (ligand) ITPKSVTKRVKETVMLSCDYNTSTEELTSLRIYWQKDSKMVLAILPGKVQVWPEYKNRTITDMNDNPRIVILALRLSDSGTYTCVIQKPDLKGAYKLEHLASVRLMIRADFPVPTINDLGNPSPNIRRLICSTSGGFPRPHLYWLENGEELNATNTTLSQDPETKLYMISSELDFNVTNNRSIVCLIKYGELSVSQIFPWSKPKQEPPIDQLPFWVIIPVSGALVLTAVVLYCLACRHVARWKRTRRNEETVGTERLSPIYLGSAQSSG
0	Round 2 CD28F3-6 (ligand) ITPKSVTKRVKETVMLSCDYSTSTEELTSLRIYWQKDSKMVLAILPGKVQVWPEYKNRTITDMNDNPRIVILALRLSDSGTYTCVIQKPDLKGAYKLEHLTSVRLMIRADFPVPTINDLGNPSPNIRRLICSTSGGFPRPHLYWLENGEELNATNTTLSQDPETKLYMISSELDFNVTNNHSIVCLIKYGELSVSQIFPWSKPKQEPPIDQLPFWVIIPVSGALVLTAVVLYCLACRHVARWKRTRRNEETVGTERLSPIYLGSAQSSG
1	Round 2 CD28F8-4 (ligand) ITPKSVTKRVKETVMLSCDYSTSTEELTSLRIYWQKDSKMVLAILPGKVQVWPEYKNRTITDMNDNPRIVILALRLSDSGTYTCVIQKPVLKGAYKLEHLASVRLMIRADFPVPTINDLGNPSPNIRRLICSTSGGFPRPHLYWLENGEELNATNTTLSQDPETKLYMISSELDFNVTNNHSIVCLIKYGELSVSQIFPWSKPKQEPPIDQLPFWVIIPVSGALVLTAVVLYCLACRHVARWKRTRRNEETVGTERLSPIYLGSAQSSG
1	Round 2 CD28D8-9 (ligand) ITPKSVTKRVKETVMLSCDYSTSTEELTSLRIYWQKDSKMVLAILPGKVQVWPEYKNRTITDMNDNPRIVILALRLSDSGTYTCVIQKPVLKGAYKLEHLTSVRLMIRADFPVPTINDLGNPSPNIRRLICSTSGGFPRPHLYWLENGEELNATNTTVSQDPGTELYMISSELDFNVTNNHSIVCLIKYGELSVSQIFPWSKPKQEPPIDQLPFWVIIPVSGALVLTAVVLYCLACRHVARWKRTRRNEETVGTERLSPIYLGSAQSSG
2	Round 2 CD28F7-2 (ligand) ITPKSVTKRVKETVMLSCDYSTSTEELTSLRIYWQKDSKMVLAILPGKVQVWPEYKNRTITDMNDNPRIVILALRLSDSGTYTCVIQKPVLKGAYKLEHLASVRLMIRADFPVPTINDLGNPSPNIRRLICSTSGGFPEPRLAWMEDGEELNAVNTTVDQDLDTELYSVSSELDFNVTNNHSIVCLIKYGELSVSQIFPWSKPKQEPPIDQLPFWVIIPVSGALVLTAVVLYCLACRHVARWKRTRRNEETVGTERLSPIYLGSAQSSG
